We go through eleven molecules from patent US20020165132A1.

Positions of bridges follow the written chain, without caps; N, C: chain ends. Non-standard residues stand in square brackets, D forms with d. No end group written: not given here. AlaL = alanine half of a lanthionine (monosulfide) bridge; Thr(ol) = C[C@@H](O)[C@H](N)CO; dValL = not defined here

The chains are these.
B1: Tyr-c[D-ValL-Gly-Phe-L-AlaL]-OMe (peptide)
peptide: Y[dValL]GF[AlaL]-OMe
modifications: thioether 2-5; reading uncertain; also: printed as Tyr-c[D-ValL-Gly-Phe-L-AlaL]-OMe
B2: Tyr-c[D-ValL-Gly-Phe-L-AlaL]-OH (peptide)
peptide: Y[dValL]GF[AlaL]-OH
modifications: thioether 2-5; reading uncertain; also: printed as Tyr-c[D-ValL-Gly-Phe-L-AlaL]-OH
B3: Tyr-c[D-ValL-Gly-Phe-D-AlaL]-OH (peptide)
peptide: Y[dValL]GF[dAlaL]-OH
modifications: thioether 2-5; reading uncertain; also: printed as Tyr-c[D-ValL-Gly-Phe-D-AlaL]-OH
B4: Tyr-c[D-AlaL-Gly-Phe-L-AlaL]-OH (peptide)
peptide: Y[dAlaL]GF[AlaL]-OH
modifications: bridge 2-5; not fully specified (bridges); printed as Tyr-c[D-AlaL-Gly-Phe-L-AlaL]-OH
B5: Tyr-c[D-AlaL-Gly-Phe-L-AlaL]-NH2 (peptide)
peptide: Y[dAlaL]GF[AlaL]-NH2
modifications: bridge 2-5; not fully specified (bridges); printed as Tyr-c[D-AlaL-Gly-Phe-L-AlaL]-NH2

Sequence of δ-receptor (mouse vas deferens preparation) (mouse), P32300 (P32300 whole entry, stated change not applied): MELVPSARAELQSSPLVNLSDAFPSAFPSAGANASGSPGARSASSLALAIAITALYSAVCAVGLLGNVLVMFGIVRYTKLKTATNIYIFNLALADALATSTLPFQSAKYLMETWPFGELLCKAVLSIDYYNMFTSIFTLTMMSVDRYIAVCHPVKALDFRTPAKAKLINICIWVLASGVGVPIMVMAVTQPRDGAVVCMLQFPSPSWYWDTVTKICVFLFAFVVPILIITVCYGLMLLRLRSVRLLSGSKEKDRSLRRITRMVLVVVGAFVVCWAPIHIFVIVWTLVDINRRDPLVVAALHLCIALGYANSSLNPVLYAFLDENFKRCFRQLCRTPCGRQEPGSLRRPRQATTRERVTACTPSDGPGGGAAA

The target in the first assay is SSTR2 Receptor (cloned somatostatin receptor). As to the kind of experiment: inhibition of radioligand binding to cloned SSTR2.
Sequence of SSTR2 Receptor (cloned somatostatin receptor) (P30875 whole entry): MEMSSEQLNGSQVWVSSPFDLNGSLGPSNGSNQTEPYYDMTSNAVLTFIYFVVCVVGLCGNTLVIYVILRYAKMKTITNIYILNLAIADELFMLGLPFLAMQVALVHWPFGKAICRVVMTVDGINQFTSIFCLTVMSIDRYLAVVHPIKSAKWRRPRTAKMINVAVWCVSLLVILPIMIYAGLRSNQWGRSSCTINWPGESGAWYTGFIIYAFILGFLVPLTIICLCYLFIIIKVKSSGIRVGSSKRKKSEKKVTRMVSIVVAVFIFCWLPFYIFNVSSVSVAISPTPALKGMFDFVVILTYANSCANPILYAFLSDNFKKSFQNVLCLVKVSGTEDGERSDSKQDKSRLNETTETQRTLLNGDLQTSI
The term IC50 denotes the concentration needed to halve the response being measured. Molecule [dF]CF[dW]KTC[Thr(ol)] (disulfide 2-7) [Sandostatin] displayed an IC50 of 2.4 nM.
Regarding H-[dF][AlaL]F[dW]KT[AlaL][Thr(ol)] (thioether 2-7) [H-D-Phe-c[AlaLPhe-D-Trp-Lys-Thr-AlaL]-Thr-ol], the IC50 amounted to 5 nM.
On the same count and under the same terms, in the case of AGCKNFFWKTFTSC (peptide, UniProt P61278 103-116, looked up, disulfide 3-14 (inferred)) [Somatostatin-14] it was 0.28 nM.
On the same count and under the same terms, the same measure for H-[dF][AlaL]F[dW]KT[AlaL]T-NH2 (thioether 2-7) [H-D-Phe-c[AlaLPhe-D-Trp-Lys-Thr-AlaL]-Thr-NH2]: 10 nM.

In a further assay the target is δ-receptor (mouse vas deferens preparation) (mouse) (UniProt P32300). As to the kind of experiment: cell-based or functional assay.
Sequence of δ-receptor (mouse vas deferens preparation) (mouse) (P32300 whole entry, stated change not applied): as the sequence (P32300 whole entry, stated change not applied) above
As for Y[dAlaL]GF[dAlaL]-NH2 (thioether 2-5) [Tyr-c[D-AlaL-Gly-Phe-D-AlaL]-NH2], the MVD IC50 worked out at 1.67 nM.
On the same count and under the same terms, in the case of B1 it was 3.65 nM.

The target in the next assay is µ-receptor (guinea pig ileum preparation) (guinea pig). As to the kind of experiment: cell-based or functional assay.
In turn, Y[dAlaL]GF[dAlaL]-NH2 (thioether 2-5) [Tyr-c[D-AlaL-Gly-Phe-D-AlaL]-NH2] showed a GPI IC50 of 1.67 nM.
Still for that read-out and setting: the same measure for B1: 88.1 nM.
Same read-out and setting: in the case of B2 it was 39 nM.
Still for that read-out and setting: in the case of B3 it was 535 nM.

The target of the next assay is SSTR4 Receptor (cloned somatostatin receptor). As to the kind of experiment: inhibition of radioligand binding to cloned SSTR4.
Sequence of SSTR4 Receptor (cloned somatostatin receptor) (P30938 whole entry): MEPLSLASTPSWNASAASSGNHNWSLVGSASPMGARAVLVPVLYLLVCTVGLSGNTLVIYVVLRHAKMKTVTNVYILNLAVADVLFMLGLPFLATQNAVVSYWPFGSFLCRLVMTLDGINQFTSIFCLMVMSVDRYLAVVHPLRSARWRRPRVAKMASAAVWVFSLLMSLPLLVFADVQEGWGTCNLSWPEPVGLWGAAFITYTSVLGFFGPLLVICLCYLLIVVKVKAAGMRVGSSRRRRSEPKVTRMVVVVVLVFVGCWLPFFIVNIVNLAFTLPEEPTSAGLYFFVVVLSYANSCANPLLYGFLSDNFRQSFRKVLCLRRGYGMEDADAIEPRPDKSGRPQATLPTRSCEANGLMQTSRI
In turn, H-[dF][AlaL]F[dW]KT[AlaL][Thr(ol)] (thioether 2-7) [H-D-Phe-c[AlaLPhe-D-Trp-Lys-Thr-AlaL]-Thr-ol] gave an IC50 of 1 nM. This lies in the single-digit nanomolar range.
On the same count and under the same terms, in the case of H-[dF][AlaL]F[dW]KT[AlaL]-OH (thioether 2-7) [H-D-Phe-c[AlaLPhe-D-Trp-Lys-Thr-AlaL]-OH] it was 500 nM; in that of AGCKNFFWKTFTSC (peptide, UniProt P61278 103-116, looked up, disulfide 3-14 (inferred)) [Somatostatin-14], 0.86 nM; in that of H-[dF][AlaL]F[dW]KT[AlaL]T-NH2 (thioether 2-7) [H-D-Phe-c[AlaLPhe-D-Trp-Lys-Thr-AlaL]-Thr-NH2], 0.5 nM.

The next assay concerns the target δ-receptor (mouse vas deferens preparation) (mouse), P32300. As to the kind of experiment: cell-based or functional assay.
The molecule B4 gave an MVD IC50 of 0.16 nM.
The same measure, in the same setting: the same measure for B5: 0.54 nM.
